{
  "source": "paper PMC3510022",
  "about": "(Molecular Biology of the Cell, 2012)",
  "binders": {"B1": {"name": "GST-Sed5 SNARE domain (residues 170–319) (domain or fragment)", "chain": "ANKDRWQKLTTDTGHAPADDQTQSNHAADLTTYNNSNPFMTSLLDESSEKNNNSSNQGELSFPQNDSQLMLMEEGQLSNNVYLQERNRAVETIESTIQEVGNLFQQLASMVQEQGEVIQRIDANVDDIDLNISGAQRELLKYFDRIKSNR"}, "B2": {"name": "His6-Nyv1 cytoplasmic domain (domain or fragment)", "chain": "MKRFNVSYVEVIKNGETISSCFQPFQKNENYGTITSANEQITPVIFHNLIMDMVLPKVVPIKGNKVTKMSMNLIDGFDCFYSTDDHDPKTVYVCFTLVDMPKILPIRILSGLQEYESNATNELLSSHVGQILDSFHEELVEYRNQTLNSSGNGQSSNGNGQNTISDIGDATEDQIKDVIQIMNDNIDKFLERQERVSLLVDKTSQLNSSSNKFRRKAVNIKEIMWWQKVKN"}, "B3": {"name": "His7-MBP-Vti1 cytoplasmic domain (domain or fragment)", "chain": "SSLLISYESDFKTTLEQAKASLAEAPSQPLSQRNTTLKHVEQQQDELFDLLDQMDVEVNNSIGDASERATYKAKLREWKKTIQSDIKRPLQSLVDSGDRDRLFGDLNASNIDDDQRQQLLSNHAILQKSGDRLKDASRIANETEGIGSQIMMDLRSQRETLENARQTLFQADSYVDKSIKTLKTMTRRLVANK"}, "B4": {"name": "Vam3 cytoplasmic domain (residues 1–264) fused C-terminally to GST (domain or fragment)", "chain": "MSFFDIEAQSSKGNSQQEPQFSTNQKTKELSNLIETFAEQSRVLEKECTKIGSKRDSKELRYKIETELIPNCTSVRDKIESNILIHQNGKLSADFKNLKTKYQSLQQSYNQRKSLFPLKTPISPGTSKERKDIHPRTEAVRQDPESSYISIKVNEQSPLLHNEGQHQLQLQEEQEQQQQGLSQEELDFQTIIHQERSQQIGRIHTAVQEVNAIFHQLGSLVKEQGEQVTTIDENISHLHDNMQNANKQLTRADQHQRDRNKCGK"}},
  "assay_in_all_cases": "pull-down",
  "key": {"[1]": {"target": "T1, His6-Sec22 cytoplasmic domain (UniProt P22214 1-192)", "T1 sequence": "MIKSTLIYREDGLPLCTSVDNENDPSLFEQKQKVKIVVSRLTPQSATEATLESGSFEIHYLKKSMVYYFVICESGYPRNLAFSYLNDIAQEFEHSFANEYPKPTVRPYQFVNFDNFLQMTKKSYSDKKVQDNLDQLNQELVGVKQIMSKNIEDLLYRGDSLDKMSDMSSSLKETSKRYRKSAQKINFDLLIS"}, "[2]": {"target": "B1"}, "purified Vps33": {"target": "T2, purified Vps33 (S. cerevisiae, UniProt P20795 1-691)", "T2 sequence": "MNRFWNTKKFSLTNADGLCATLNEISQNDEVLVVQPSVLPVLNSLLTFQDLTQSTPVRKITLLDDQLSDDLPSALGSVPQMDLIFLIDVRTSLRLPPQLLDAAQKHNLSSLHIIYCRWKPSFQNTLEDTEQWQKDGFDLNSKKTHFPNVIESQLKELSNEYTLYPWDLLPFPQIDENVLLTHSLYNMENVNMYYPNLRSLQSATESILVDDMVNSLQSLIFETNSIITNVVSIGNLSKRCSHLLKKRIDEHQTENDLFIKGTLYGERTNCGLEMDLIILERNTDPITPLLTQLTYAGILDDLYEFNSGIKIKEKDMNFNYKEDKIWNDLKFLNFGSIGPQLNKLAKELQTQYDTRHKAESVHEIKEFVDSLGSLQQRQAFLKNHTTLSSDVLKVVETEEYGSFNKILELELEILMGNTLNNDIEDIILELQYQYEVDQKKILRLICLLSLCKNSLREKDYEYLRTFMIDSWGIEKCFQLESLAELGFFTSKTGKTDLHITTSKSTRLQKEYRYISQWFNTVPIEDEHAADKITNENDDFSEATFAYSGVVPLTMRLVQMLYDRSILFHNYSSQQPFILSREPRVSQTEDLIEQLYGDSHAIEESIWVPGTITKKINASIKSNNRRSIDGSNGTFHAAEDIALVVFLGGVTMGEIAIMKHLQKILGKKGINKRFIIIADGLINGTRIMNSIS"}, "[3]": {"target": "B2"}, "[4]": {"target": "B3"}, "[5]": {"target": "B4"}, "His6-Vam7": {"target": "T3, His6-Vam7 (S. cerevisiae, UniProt P32912 1-316)", "T3 sequence": "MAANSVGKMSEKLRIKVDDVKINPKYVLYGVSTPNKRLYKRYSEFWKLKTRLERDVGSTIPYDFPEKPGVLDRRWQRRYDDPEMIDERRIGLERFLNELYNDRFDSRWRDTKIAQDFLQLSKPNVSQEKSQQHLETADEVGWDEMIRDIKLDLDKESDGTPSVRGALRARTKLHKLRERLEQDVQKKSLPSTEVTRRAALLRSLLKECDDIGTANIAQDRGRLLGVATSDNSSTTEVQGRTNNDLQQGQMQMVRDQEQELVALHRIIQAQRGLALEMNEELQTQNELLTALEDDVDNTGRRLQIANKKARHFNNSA"}},
  "data": [
    {"binder": "B1", "values": [
      {"measurement": "binding result", "setting": "[1]", "value": "binds"}
    ]},
    {"binder": "His6-Bet1 cytoplasmic domain (domain or fragment) MSSRFAGGNAYQRDTGRTQLFGPADGSNSLDDNVSSALGSTDKLDYSQSTLASLESQSEEQMGAMGQRIKALKSLSLKMGDEIRGSNQTIDQLGDTFHNTSVKLKRTFGNMMEMARR", "values": [
      {"measurement": "binding result", "setting": "[2]", "value": "binds"}
    ]},
    {"binder": "minimal SNARE complex lacking the N-terminal domains of Vam3 and Vam7 (complex) chain 1: SQEELDFQTIIHQERSQQIGRIHTAVQEVNAIFHQLGSLVKEQGEQVTTIDENISHLHDNMQNANKQLTRADQHQRDRNKCGK chain 2: PSTEVTRRAALLRSLLKECDDIGTANIAQDRGRLLGVATSDNSSTTEVQGRTNNDLQQGQMQMVRDQEQELVALHRIIQAQRGLALEMNEELQTQNELLTALEDDVDNTGRRLQIANKKARHFNNSA chain 3: SSLLISYESDFKTTLEQAKASLAEAPSQPLSQRNTTLKHVEQQQDELFDLLDQMDVEVNNSIGDASERATYKAKLREWKKTIQSDIKRPLQSLVDSGDRDRLFGDLNASNIDDDQRQQLLSNHAILQKSGDRLKDASRIANETEGIGSQIMMDLRSQRETLENARQTLFQADSYVDKSIKTLKTMTRRLVANK chain 4: MKRFNVSYVEVIKNGETISSCFQPFQKNENYGTITSANEQITPVIFHNLIMDMVLPKVVPIKGNKVTKMSMNLIDGFDCFYSTDDHDPKTVYVCFTLVDMPKILPIRILSGLQEYESNATNELLSSHVGQILDSFHEELVEYRNQTLNSSGNGQSSNGNGQNTISDIGDATEDQIKDVIQIMNDNIDKFLERQERVSLLVDKTSQLNSSSNKFRRKAVNIKEIMWWQKVKN", "values": [
      {"measurement": "Kd", "setting": "purified Vps33", "value": 2800, "unit": "nM"}
    ]},
    {"binder": "Vam3 SNARE domain (residues 182–264) fused C-terminally to GST (domain or fragment) SQEELDFQTIIHQERSQQIGRIHTAVQEVNAIFHQLGSLVKEQGEQVTTIDENISHLHDNMQNANKQLTRADQHQRDRNKCGK", "values": [
      {"measurement": "binding result", "setting": "[3]", "value": "binds"},
      {"measurement": "binding result", "setting": "[4]", "value": "binds"}
    ]},
    {"binder": "B2", "values": [
      {"measurement": "binding result", "setting": "[5]", "value": "binds"}
    ]},
    {"binder": "B3", "values": [
      {"measurement": "binding result", "setting": "[5]", "value": "binds"}
    ]},
    {"binder": "B4", "values": [
      {"measurement": "binding result", "setting": "His6-Vam7", "value": "binds"}
    ]}
  ]
}
